According to PMC10123104, “YbiB: a novel interactor of the GTPase ObgE”:
Substitutions are numbered along the chain they refer to.

Tests used:
YbiB Arg123Glu = molecular target: T1, YbiB Arg123Glu (Escherichia coli BW25113, UniProt P30177 1-320, R123E); test: EMSA; EMSA: 20 mM HEPES pH 7.5, 150 mM NaCl, 5 mM MgCl2, 2 mM DTT, 5% glycerol, 30 min at 37 C; 6% PAGE in 1x TBE at room temperature; details: protein: recombinant; tags: N-terminal His6, thrombin site (pET28a); chain copies: 2; label: 5'-32P; single strand
T1 sequence: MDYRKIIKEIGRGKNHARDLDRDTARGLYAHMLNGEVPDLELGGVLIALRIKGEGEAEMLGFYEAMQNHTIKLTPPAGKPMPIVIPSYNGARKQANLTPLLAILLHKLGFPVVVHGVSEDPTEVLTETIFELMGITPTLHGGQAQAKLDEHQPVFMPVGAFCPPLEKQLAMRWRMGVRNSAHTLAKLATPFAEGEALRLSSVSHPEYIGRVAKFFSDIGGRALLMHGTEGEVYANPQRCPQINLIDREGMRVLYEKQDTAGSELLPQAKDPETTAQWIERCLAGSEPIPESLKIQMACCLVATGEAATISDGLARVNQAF

YbiB Arg92Glu = molecular target: T2, YbiB Arg92Glu (Escherichia coli BW25113, UniProt P30177 1-320, R92E); test: as above; details: protein: recombinant; tags: N-terminal His6, thrombin site (pET28a); chain copies: 2; label: 5'-32P; single strand
T2 sequence: T1 sequence with R92E, E123R

B1: EMSA_probe (58-nt ssDNA) (ssDNA)
DNA: GCTTTTGATGTACCAATGCATCACCATCACCATCAGGAAATGGGTAAGATGCTTGTAG
For B1, the binding signal (YbiB Arg123Glu) was > 10 fold higher apparent KD than WT and the binding signal (YbiB Arg92Glu) was > 10 fold higher apparent KD than WT.
